Earlier results on one substance are cited in patent US10562936B2, “Ligands for integrin αvβ6, synthesis and uses thereof” (Technische Universitat Munchen, priority 2015, dated 2020).

The term IC50 denotes the concentration needed to halve the response being measured.

For this data set, the target named is αvβ6 (Homo sapiens, UniProt P06756+P18564). The conditions noted are these: from WO 01/05810; cited from earlier work.

Square brackets hold non-standard residues; d marks the D form. Abu = CC[C@H](N)C(=O)O

Chain of αvβ6 (P06756 31-1048): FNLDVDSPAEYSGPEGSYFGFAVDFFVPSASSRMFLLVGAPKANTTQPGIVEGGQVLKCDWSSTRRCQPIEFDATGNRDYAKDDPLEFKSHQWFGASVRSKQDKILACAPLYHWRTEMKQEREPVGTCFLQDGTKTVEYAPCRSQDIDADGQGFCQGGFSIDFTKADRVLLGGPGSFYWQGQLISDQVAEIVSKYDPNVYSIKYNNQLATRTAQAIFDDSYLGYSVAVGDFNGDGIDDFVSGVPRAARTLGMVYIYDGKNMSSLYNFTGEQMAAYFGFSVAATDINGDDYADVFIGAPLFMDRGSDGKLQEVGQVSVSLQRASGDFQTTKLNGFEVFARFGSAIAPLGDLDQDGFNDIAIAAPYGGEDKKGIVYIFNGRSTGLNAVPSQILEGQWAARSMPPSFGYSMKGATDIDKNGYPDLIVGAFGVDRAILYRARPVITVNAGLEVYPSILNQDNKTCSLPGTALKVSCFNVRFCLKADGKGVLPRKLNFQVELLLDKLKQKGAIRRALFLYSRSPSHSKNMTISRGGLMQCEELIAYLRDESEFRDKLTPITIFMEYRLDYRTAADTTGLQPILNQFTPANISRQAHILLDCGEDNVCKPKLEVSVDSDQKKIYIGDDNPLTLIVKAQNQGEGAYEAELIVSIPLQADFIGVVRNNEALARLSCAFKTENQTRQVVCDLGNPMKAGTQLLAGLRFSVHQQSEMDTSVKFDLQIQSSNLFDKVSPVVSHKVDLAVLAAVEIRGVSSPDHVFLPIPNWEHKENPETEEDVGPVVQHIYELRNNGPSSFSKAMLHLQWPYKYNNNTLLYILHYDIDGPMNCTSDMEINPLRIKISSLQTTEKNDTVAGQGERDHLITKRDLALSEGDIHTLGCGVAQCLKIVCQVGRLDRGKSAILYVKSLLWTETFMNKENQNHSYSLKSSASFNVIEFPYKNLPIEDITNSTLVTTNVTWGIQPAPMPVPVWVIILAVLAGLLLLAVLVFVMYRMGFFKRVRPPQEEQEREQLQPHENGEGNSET
Chain of αvβ6 (P18564 22-788): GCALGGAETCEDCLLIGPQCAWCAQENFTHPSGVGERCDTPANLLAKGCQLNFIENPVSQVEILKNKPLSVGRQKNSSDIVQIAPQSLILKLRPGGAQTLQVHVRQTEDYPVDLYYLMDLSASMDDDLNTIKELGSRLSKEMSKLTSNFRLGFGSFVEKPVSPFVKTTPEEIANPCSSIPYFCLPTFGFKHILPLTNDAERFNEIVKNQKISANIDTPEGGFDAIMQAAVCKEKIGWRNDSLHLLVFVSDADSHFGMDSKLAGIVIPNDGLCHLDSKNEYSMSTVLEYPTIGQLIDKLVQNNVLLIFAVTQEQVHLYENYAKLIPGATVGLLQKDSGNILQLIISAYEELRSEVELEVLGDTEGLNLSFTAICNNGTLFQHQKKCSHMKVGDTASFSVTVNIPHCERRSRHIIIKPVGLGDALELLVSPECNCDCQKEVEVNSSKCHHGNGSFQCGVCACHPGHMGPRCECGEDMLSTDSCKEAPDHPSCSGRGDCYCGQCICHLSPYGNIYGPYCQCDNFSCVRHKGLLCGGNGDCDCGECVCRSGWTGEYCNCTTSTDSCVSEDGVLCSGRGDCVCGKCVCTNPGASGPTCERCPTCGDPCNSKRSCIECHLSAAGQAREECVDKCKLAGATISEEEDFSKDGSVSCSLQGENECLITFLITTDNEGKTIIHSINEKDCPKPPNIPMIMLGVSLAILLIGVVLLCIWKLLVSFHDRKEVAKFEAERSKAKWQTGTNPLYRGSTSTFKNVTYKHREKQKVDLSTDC

As to “cyclo(RTDLdALR-Abu-Abu) (cyclo(RTDL[dD]ALR[Abu][Abu]); SMILES CC[C@@H]1NC(=O)[C@H](CCCNC(=N)N)NC(=O)[C@H](CC(C)C)NC(=O)[C@H](C)NC(=O)[C@@H](CC(=O)O)NC(=O)[C@H](CC(C)C)NC(=O)[C@H](CC(=O)O)NC(=O)[C@H]([C@@H](C)O)NC(=O)[C@H](CCCNC(=N)N)NC(=O)[C@H](CC)NC1=O)”, the IC50 is approximately 1 nM.
